The record followed here is patent US20170037133A1.

One assay deals with CD155 (PVR) (UniProt P15151). In words: cell-based or functional assay.
The next assay addresses CD112 (Nectin-2, PVRL2) (UniProt Q92692). In words: cell-based or functional assay.
UniProt Q92692, sequence (Q92692 32-538 limits assumed): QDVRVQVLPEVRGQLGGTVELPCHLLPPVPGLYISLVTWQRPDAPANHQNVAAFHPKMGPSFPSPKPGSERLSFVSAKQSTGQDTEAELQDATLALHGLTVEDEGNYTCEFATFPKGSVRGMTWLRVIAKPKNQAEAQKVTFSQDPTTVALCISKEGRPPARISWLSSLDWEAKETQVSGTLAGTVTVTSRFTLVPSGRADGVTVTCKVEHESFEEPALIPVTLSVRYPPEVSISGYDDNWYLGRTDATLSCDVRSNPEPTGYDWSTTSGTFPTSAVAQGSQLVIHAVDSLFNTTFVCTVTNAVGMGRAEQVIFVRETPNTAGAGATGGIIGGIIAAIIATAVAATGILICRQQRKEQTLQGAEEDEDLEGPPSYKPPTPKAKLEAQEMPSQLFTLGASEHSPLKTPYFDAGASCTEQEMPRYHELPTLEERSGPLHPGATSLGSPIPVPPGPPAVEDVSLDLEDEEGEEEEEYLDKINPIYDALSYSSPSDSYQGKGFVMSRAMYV

UniProt P15151, sequence (P15151 21-417 limits assumed): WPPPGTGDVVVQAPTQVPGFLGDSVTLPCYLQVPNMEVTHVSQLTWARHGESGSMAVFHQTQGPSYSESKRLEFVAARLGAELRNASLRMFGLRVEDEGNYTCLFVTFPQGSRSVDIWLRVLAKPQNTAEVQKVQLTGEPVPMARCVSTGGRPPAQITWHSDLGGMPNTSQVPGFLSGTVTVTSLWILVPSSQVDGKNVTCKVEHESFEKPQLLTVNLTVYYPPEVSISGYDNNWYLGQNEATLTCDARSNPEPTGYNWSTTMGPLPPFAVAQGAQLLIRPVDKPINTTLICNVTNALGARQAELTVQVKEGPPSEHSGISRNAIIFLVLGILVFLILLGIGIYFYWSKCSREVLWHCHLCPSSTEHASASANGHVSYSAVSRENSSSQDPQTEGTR

As for mouse anti-PVR clone D171 (antibody), in the assay with CD155 (PVR), the MV4-11 cell lysis in the presence of 0.1 ng/ml AMG 330 worked out at 49.7% and the cell kill of MV4-11 (7-AAD positive target cells, 24 h co-culture with PBMCs, no AMG 330) was found to be 33%.
On to mouse anti-PVRL2 clone L14 (antibody), for which, in the assay with CD112 (Nectin-2, PVRL2), the MV4-11 cell lysis in the presence of 0.1 ng/ml AMG 330 worked out at 57.9% and the cell kill of MV4-11 (7-AAD positive target cells, 24 h co-culture with PBMCs, no AMG 330) amounted to 40.4%.
